From publication doi:10.1101/869289 (bioRxiv, 2019) come the findings set out here.

T1: acylglycerol kinase (AGK) (human, UniProt Q53H12 1-422)
T1 sequence (looked up): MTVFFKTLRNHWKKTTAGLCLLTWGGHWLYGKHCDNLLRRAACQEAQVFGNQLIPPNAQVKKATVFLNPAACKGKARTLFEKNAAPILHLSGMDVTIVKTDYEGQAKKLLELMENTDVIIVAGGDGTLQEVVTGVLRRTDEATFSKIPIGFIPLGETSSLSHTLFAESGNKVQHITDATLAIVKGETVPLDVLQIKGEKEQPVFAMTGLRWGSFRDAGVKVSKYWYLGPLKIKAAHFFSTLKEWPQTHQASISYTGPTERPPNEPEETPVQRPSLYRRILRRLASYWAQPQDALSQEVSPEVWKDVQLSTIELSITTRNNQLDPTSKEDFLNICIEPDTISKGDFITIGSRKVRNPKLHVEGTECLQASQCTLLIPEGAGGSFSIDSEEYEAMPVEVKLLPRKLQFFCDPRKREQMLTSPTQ

B1: Tim9 (natural protein, human, UniProt Q9Y5J7 1-89, looked up)
chain: MAAQIPESDQIKQFKEFLGTYNKLTETCFLDCVKDFTTREVKPEETTCSEHCLQKYLKMTQRISMRFQEYHIQQNEALAAKAGLLGQPR
B2: Tim29 (natural protein, human, UniProt Q9BSF4 32-260, looked up)
chain: GSWARALLRDYAEACRDASAEARARPGRAAVYVGLLGGAAACFTLAPSEGAFEEALLEASGTLLLLAPATRNRESEAFVQRLLWLRGRGRLRYVNLGLCSLVYEAPFDAQASLYQARCRYLQPRWTDFPGRVLDVGFVGRWWVLGAWMRDCDINDDEFLHLPAHLRVVGPQQLHSETNERLFDEKYKPVVLTDDQVDQALWEEQVLQKEKKDRLALSQAHSLVQAEAPR
B3: Tim22 (natural protein, human, UniProt Q9Y584 1-194, looked up)
chain: MAAAAPNAGGSAPETAGSAEAPLQYSLLLQYLVGDKRQPRLLEPGSLGGIPSPAKSEEQKMIEKAMESCAFKAALACVGGFVLGGAFGVFTAGIDTNVGFDPKDPYRTPTAKEVLKDMGQRGMSYAKNFAIVGAMFSCTECLIESYRGTSDWKNSVISGCITGGAIGFRAGLKAGAIGCGGFAAFSAAIDYYLR
B4: Tim10a (natural protein, human, UniProt P62072 1-90, looked up)
chain: MDPLRAQQLAAELEVEMMADMYNRMTSACHRKCVPPHYKEAELSKGESVCLDRCVSKYLDIHERMGKKLTELSMQDEELMKRVQQSSGPA
B5: Tim10b (natural protein, human, UniProt Q9Y5J6 1-103, looked up)
chain: MERQQQQQQQLRNLRDFLLVYNRMTELCFQRCVPSLHHRALDAEEEACLHSCAGKLIHSNHRLMAAYVQLMPALVQRRIADYEAASAVPGVAAEQPGVSPSGS

Test in all cases: cryo-EM structure
The assay “Tim22” deals with B3.
The assay “Tim10b” has as its target B5.
The assay “Tim29” deals with B2.
Assay [1] addresses T1, acylglycerol kinase (AGK).
In the assay “Tim10a” the target is B4.

Take B1: the binding result (with Tim22; with Tim10b; in the assay with Tim29; in assay [1]) was “binds” in each case. The “stoichiometry N” value with Tim10a is 1 Tim9:Tim10a (3:3 in the hexamer).

On to B2, for which the binding result in assay [1] is listed as “binds”.

On to B3, for which, in the assay with Tim29, the binding result is reported as “binds”.

For B4, the binding result (with Tim22; in the assay with Tim10b; with Tim29; in assay [1]) was “binds” in each case.

Consider B5, for which the binding result (with Tim29; in assay [1]) was “binds” throughout.
